From publication PMC11574045, “A cofactor-induced repressive type of transcription factor condensation can be induced by synthetic peptides to suppress tumorigenesis” (The EMBO Journal, 2024)
Where a chain is given by its changes, count along the chain named.

B1: FOXE3 (protein, UniProt Q13461 1-319, looked up)
Forkhead box protein E3: MAGRSDMDPPAAFSGFPALPAVAPSGPPPSPLAGAEPGREPEEAAAGRGEAAPTPAPGPGRRRRRPLQRGKPPYSYIALIAMALAHAPGRRLTLAAIYRFITERFAFYRDSPRKWQNSIRHNLTLNDCFVKVPREPGNPGKGNYWTLDPAAADMFDNGSFLRRRKRFKRAELPAHAAAAPGPPLPFPYAPYAPAPGPALLVPPPSAGPGPSPPARLFSVDSLVNLQPELAGLGAPEPPCCAAPDAAAAAFPPCAAAASPPLYSQVPDRLVLPATRPGPGPLPAEPLLALAGPAAALGPLSPGEAYLRQPGFASGLERYL
B2: AIOLOS (protein, UniProt Q9UKT9 1-509, looked up)
Zinc finger protein Aiolos: MEDIQTNAELKSTQEQSVPAESAAVLNDYSLTKSHEMENVDSGEGPANEDEDIGDDSMKVKDEYSERDENVLKSEPMGNAEEPEIPYSYSREYNEYENIKLERHVVSFDSSRPTSGKMNCDVCGLSCISFNVLMVHKRSHTGERPFQCNQCGASFTQKGNLLRHIKLHTGEKPFKCHLCNYACQRRDALTGHLRTHSVEKPYKCEFCGRSYKQRSSLEEHKERCRTFLQSTDPGDTASAEARHIKAEMGSERALVLDRLASNVAKRKSSMPQKFIGEKRHCFDVNYNSSYMYEKESELIQTRMMDQAINNAISYLGAEALRPLVQTPPAPTSEMVPVISSMYPIALTRAEMSNGAPQELEKKSIHLPEKSVPSERGLSPNNSGHDSTDTDSNHEERQNHIYQQNHMVLSRARNGMPLLKEVPRSYELLKPPPICPRDSVKVINKEGEVMDVYRCDHCRVLFLDYVMFTIHMGCHGFRDPFECNMCGYRSHDRYEFSSHIARGEHRALLK
B3: FOXD4L1 (protein, UniProt Q9NU39 1-408, looked up)
Forkhead box protein D4-like 1: MNLPRAERPRSTPQRSLRDSDGEDGKIDVLGEEEDEDEVEDEEEEASQKFLEQSLQPGLQVARWGGVALPREHIEGGGPSDPSEFGTEFRAPPRSAAASEDARQPAKPPYSYIALITMAILQSPHKRLTLSGICAFISGRFPYYRRKFPAWQNSIRHNLSLNDCFVKIPREPGHPGKGTYWSLDPASQDMFDNGSFLRRRKRFKRHQLTPGAHLPHPFPLPAAHAALHNPRPGPLLGAPALPQPVPGAYPNTAPGRRPYALLHPHPPRYLLLSAPAYAGAPKKAEGADLATPGTLPVLQPSLGPQPWEEGKGLASPPGGGCISFSIESIMQGVRGAGTGAAQSLSPTAWSYCPLLQRPSSLSDNFAATAAASGGGLRQRLRSHQGRGAGRAPVGRVGAAAVSGGGRGL
B4: FOXB2 (protein, UniProt Q5VYV0 1-432, looked up)
Forkhead box protein B2: MPRPGKSSYSDQKPPYSYISLTAMAIQHSAEKMLPLSDIYKFIMERFPYYREHTQRWQNSLRHNLSFNDCFIKIPRRPDQPGKGSFWALHPDCGDMFENGSFLRRRKRFKVLRADHTHLHAGSTKSAPGAGPGGHLHPHHHHHPHHHHHHHAAAHHHHHHHPPQPPPPPPPPPPHMVHYFHQQPPTAPQPPPHLPSQPPQQPPQQSQPQQPSHPGKMQEAAAVAAAAAAAAAAAVGSVGRLSQFPPYGLGSAAAAAAAAAASTSGFKHPFAIENIIGRDYKGVLQAGGLPLASVMHHLGYPVPGQLGNVVSSVWPHVGVMDSVAAAAAAAAAAGVPVGPEYGAFGVPVKSLCHSASQSLPAMPVPIKPTPALPPVSALQPGLTVPAASQQPPAPSTVCSAAAASPVASLLEPTAPTSAESKGGSLHSVLVHS
B5: FOXI2 (protein, UniProt Q6ZQN5 1-318, looked up)
Forkhead box protein I2: MATYCDDLGPSSAPPGQAQATAHPPGYEPGDLGAVGGGPLLWVNAPALSPKSYASGPGPAPPYAAPSYGAPGPLLGAPGGLAGADLAWLSLSGQQELLRLVRPPYSYSALIAMAIQSAPLRKLTLSQIYQYVAGNFPFYKRSKAGWQNSIRHNLSLNDCFKKVPRDEDDPGKGNYWTLDPNCEKMFDNGNFRRKRKRRAEASAAVRSGARSVGGAEAPALEPPSAACLDLQASPSPSAPEAATCFSGFASAMSALAGGLGTFPGGLAGDFSFGRRPPTVATHAPQTLNPSPGFAPGHQTAAAGFRLSHLLYSREGTEV
B6: FOXF2 (protein, UniProt O54743 1-446, looked up)
Forkhead box protein F2: MSTEGGPPPPPPRPPPAPLRRACSPAPGALQAALMSPPPAATLESTSSSSSSSSASCASSSSNSVSASAGACKSAASSGGAGAGSGGTKKATSGLRRPEKPPYSYIALIVMAIQSSPSKRLTLSEIYQFLQARFPFFRGAYQGWKNSVRHNLSLNECFIKLPKGLGRPGKGHYWTIDPASEFMFEEGSFRRRPRGFRRKCQALKPMYHRVVSGLGFGASLLPQGFDFQAPPSAPLGCHGQGGYGGLDMMPAGYDTGAGAPGHAHPHHLHHHHVPHMSPNPGSTYMASCPVPAGPAGVGAAAGGGGGGGDYGPDSSSSPVPSSPAMASAIECHSPYTSPAAHWSSPGASPYLKQPPALTPSSNPAASAGLHPSMSSYSLEQSYLHQNAREDLSVGLPRYQHHSTPVCDRKDFVLNFNGISSFHPSASGSYYHHHHQSVCQDIKPCVM
B7: FOXN2 (protein, UniProt P32314 1-431, looked up)
Forkhead box protein N2: MGPVIGMTPDKRAETPGAEKIAGLSQIYKMGSLPEAVDAARPKATLVDSESADDELTNLNWLHESTNLLTNFSLGSEGLPIVSPLYDIEGDDVPSFGPACYQNPEKKSATSKPPYSFSLLIYMAIEHSPNKCLPVKEIYSWILDHFPYFATAPTGWKNSVRHNLSLNKCFQKVERSHGKVNGKGSLWCVDPEYKPNLIQALKKQPFSSASSQNGSLSPHYLSSVIKQNQVRNLKESDIDAAAAMMLLNTSIEQGILECEKPLPLKTALQKKRSYGNAFHHPSAVRLQESDSLATSIDPKEDHNYSASSMAAQRCASRSSVSSLSSVDEVYEFIPKNSHVGSDGSEGFHSEEDTDVDYEDDPLGDSGYASQPCAKISEKGQSGKKMRKQTCQEIDEELKEAAGSLLHLAGIRTCLGSLISTAKTQNQKQRKK
B8: FOXD4L4 (protein, UniProt Q8WXT5 1-416, looked up)
Forkhead box protein D4-like 4: MNLPRAERPRSTPQRSLRDSDGEDGKIDVLGEEEDEDEVEDEEEEARQQFLEQSLQPGLQVARWGGVALPREHIEGGGGPSDPSEFGTKFRAPPRSAAASEDARQPAKPPYSYIALITMAILQNPHKRLTLSGICAFISGRFPYYRRKFPAWQNSIRHNLSLNDCFVKIPREPGHPGKGNYWSLDPASQDMFDNGSFLRRRKRFKRHQLTPGAHLPHPFPLPAAHAALHNPHPGPLLGAPAPPQPVPGAYPNTAPGRRPYALLHPHPLRYLLLSARVYAGAPKKAEGADLATPAPFPCCSPHLVLSLGRRARVWRRHREADASLSALRVLCKGSGERVQGLRRVCPRPRGATATCSSDHQACCIPKPLPLCCKCPPPLLLGQFCSNSSSIRRTAPTAALPPRARCWAGTCRPRRRC
B9: FOXD4L5 (protein, UniProt Q5VV16 1-416, looked up)
Forkhead box protein D4-like 5: B8 Forkhead box protein D4-like 4 with R258C, R276P
B10: FOXM1 (protein, UniProt O08696 1-760, looked up)
Forkhead box protein M1: MRTSPRRPLILKRRRLPLPVQNAPSETSEEEAKRSPAQPEPAPAQASQEVAESSSCKFPAGIKIINHPTTPNTQVVAIPSNADIQSIITALTAKGKESGTSGPNRFILISSGGPSSHPSQPQAHSSRDSKRAEVITETLGPKPAAKGVPVPKPPGAPPRQRQESYAGGEAAGCTLDNSLTNIQWLGKMSSDGLGPCSVKQELEEKENCHLEQNRVKVEEPSGVSTSWQDSVSERPPYSYMAMIQFAINSTERKRMTLKDIYTWIEDHFPYFKHIAKPGWKNSIRHNLSLHDMFVRETSANGKVSFWTIHPSANRHLTLDQVFKPLEPGSPQSPEHLESQQKRPNPELHRNVTIKTEIPLGARRKMKPLLPRVSSYLEPIQFPVNQSLVLQPSVKVPFRLAASLMSSELARHSKRVRIAPKVLLSSEGIAPLPATEPPKEEKPLLGGEGLLPLLPIQSIKEEEMQPEEDIAHLERPIKVESPPLEEWPSPCASLKEELSNSWEDSSCSPTPKPKKSYCGLKSPTRCVSEMLVTKRREKREVSRSRRKQHLQPPCLDEPDLFFPEDSSTFRPAVELLAESSEPAPHLSCPQEEGGPFKTPIKETLPVSSTPSKSVLSRDPESWRLTPPAKVGGLDFSPVRTPQGAFGLLPDSLGLMELNTTPLKSGPLFDSPRELLNSEPFDLASDPFGSPPPPHVEGPKPGSPELQIPSLSANRSLTEGLVLDTMNDSLSKILLDISFPGLEEDPLGPDNINWSQFIPELR
B11: FOXO3 (protein, UniProt O43524 1-673, looked up)
Forkhead box protein O3: MAEAPASPAPLSPLEVELDPEFEPQSRPRSCTWPLQRPELQASPAKPSGETAADSMIPEEEDDEDDEDGGGRAGSAMAIGGGGGSGTLGSGLLLEDSARVLAPGGQDPGSGPATAAGGLSGGTQALLQPQQPLPPPQPGAAGGSGQPRKCSSRRNAWGNLSYADLITRAIESSPDKRLTLSQIYEWMVRCVPYFKDKGDSNSSAGWKNSIRHNLSLHSRFMRVQNEGTGKSSWWIINPDGGKSGKAPRRRAVSMDNSNKYTKSRGRAAKKKAALQTAPESADDSPSQLSKWPGSPTSRSSDELDAWTDFRSRTNSNASTVSGRLSPIMASTELDEVQDDDAPLSPMLYSSSASLSPSVSKPCTVELPRLTDMAGTMNLNDGLTENLMDDLLDNITLPPSQPSPTGGLMQRSSSFPYTTKGSGLGSPTSSFNSTVFGPSSLNSLRQSPMQTIQENKPATFSSMSHYGNQTLQDLLTSDSLSHSDVMMTQSDPLMSQASTAVSAQNSRRNVMLRNDPMMSFAAQPNQGSLVNQNLLHHQHQTQGALGGSRALSNSVSNMGLSESSSLGSAKHQQQSPVSQSMQTLSDSLSGSSLYSTSANLPVMGHEKFPSDLDLDMFNGSLECDMESIIRSELMDADGLDFNFDSLISTQNVVGLNVGNFTGAKQASSQSWVPG
B12: FOXI1 (protein, UniProt Q12951 1-378, looked up)
Forkhead box protein I1: MSSFDLPAPSPPRCSPQFPSIGQEPPEMNLYYENFFHPQGVPSPQRPSFEGGGEYGATPNPYLWFNGPTMTPPPYLPGPNASPFLPQAYGVQRPLLPSVSGLGGSDLGWLPIPSQEELMKLVRPPYSYSALIAMAIHGAPDKRLTLSQIYQYVADNFPFYNKSKAGWQNSIRHNLSLNDCFKKVPRDEDDPGKGNYWTLDPNCEKMFDNGNFRRKRKRKSDVSSSTASLALEKTESSLPVDSPKTTEPQDILDGASPGGTTSSPEKRPSPPPSGAPCLNSFLSSMTAYVSGGSPTSHPLVTPGLSPEPSDKTGQNSLTFNSFSPLTNLSNHSGGGDWANPMPTNMLSYGGSVLSQFSPHFYNSVNTSGVLYPREGTEV

The molecules below were run on HEK293FT cells transfected with TF library (assay: Screening of TF condensates based on fluorescent puncta). Conditions: Figure 1B numerical data; TF library screen, one value per transcriptional factor.
Assay type: cell-based
Procedure, shortened: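 Puncta scoring used automated confocal imaging of fifty random fields per well, after anti-Flag or anti-GAL4 immunofluorescence (Alexa 488) in PFA-fixed cells. HEK293FT cells carried TF library plasmids delivered with PEI (1.6 μg/ml DNA). At 60 h they were switched for 12 h to glucose-containing or glucose-free medium.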

Molecule | Z score of condensed fraction
B1 | -0.8488
B2 | 0.5203
B3 | -0.9826
B4 | -0.2645
B5 | -0.5391
B6 | 0.2019
B7 | -0.402
B8 | 0.1205
B9 | -0.7466
B10 | 2.036
B11 | -0.5303
B12 | -1.1314
